B1: Azoarcus group I ribozyme (parent)
chain: GUGCCUUGCGCCGGGAAACCACGCAAGGGAUGGUGUCAAAUUCGGCGAAACCUAAGCGCCCGCCCGGGCGUAUGGCAACGCCGAGCCAAGCUUCGGCGCCUGCGCCGAUGAAGGUGUAGAGACUAGACGGCACCCACCUAAGGCAAACGCUAUGGUGAAGGCAUAGUCCAGGGAGUGGCGAAAGUCACACAAACCGG

The series covers variants of B1. The series can be described thus: reverse-splicing fitness (ratio to wild type); higher = more active; in vitro selection; Mg2+ level not given. The method, boiled down:
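An in vitro group I ribozyme library with randomized positions was T7-transcribed and gel-purified. In triplicate, 10 pmol RNA in EPPS pH 7.5 was reacted with 50 pmoles of a 30-nt RNA substrate for 1 h at 37 °C across several added MgCl2 levels (1–48 mM), then stopped with EDTA. Products were reverse transcribed from a substrate-complementary primer, PCR-amplified and sequenced (HiSeq 4000). Fitness is a variant's read proportion after selection over that before, normalised to wild type.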
As to C82A A111C A145G C169U, the reverse-splicing fitness is 0.0142.

Take C82U A111G A120C A145C C150G U176G: the reverse-splicing fitness was 0.00231.

Regarding C82G A111U A120C C150A, the reverse-splicing fitness amounted to 0.0117.

Consider A111G A120G C150A C169U U176G, for which the reverse-splicing fitness is 0.00819.

Regarding C82U A111U A120C A145G C150G C169G, the reverse-splicing fitness was 0.00731.

Turning to C82G A120C U176A, the reverse-splicing fitness was 0.0764.

As to A111U A145G C150G C169G, the reverse-splicing fitness was 0.011.

For the variant C82U A111C A145U C150U C169U U176G, the reverse-splicing fitness came to 0.00669.

For the variant C82U A111C A120C A145U C169U, the reverse-splicing fitness was 0.0103.

Consider A120G A145C C150U C169A U176A, for which the reverse-splicing fitness worked out at 0.0422.

Turning to C82U A120C C150U C169U, the reverse-splicing fitness was 0.0165.

Take C82U A111C A145G C169G U176A: the reverse-splicing fitness was 0.0236.

For the variant C82A A120G A145U C150A C169U U176C, the reverse-splicing fitness turned out to be 0.0164.

Regarding A145C C150A C169U U176G, the reverse-splicing fitness came to 0.00589.

Turning to C82A A111G A120G A145C C150U U176G, the reverse-splicing fitness amounted to 0.00504.

Take A145C C150U U176C: the reverse-splicing fitness turned out to be 0.596.

Turning to C82U A120C A145C C150A U176G, the reverse-splicing fitness amounted to 0.00472.

On to C82U A111G A120U A145U C150U C169A U176G, for which the reverse-splicing fitness turned out to be 0.00165.

With C82A A111G A120U A145U C169A, the reverse-splicing fitness came to 0.00232.

On to C82U A120G A145G C169A, for which the reverse-splicing fitness came out at 0.018.

As for A111C A145U C150U C169G U176C, the reverse-splicing fitness came out at 0.0215.

Consider C82A A111G A120G A145U C150G, for which the reverse-splicing fitness stood at 0.00709.

For C82G A111U A120C A145U C150U C169U U176A, the reverse-splicing fitness came out at 0.0134.

As for A111U C169A U176G, the reverse-splicing fitness came out at 0.00592.

For the variant C82A A120U A145C C150A U176A, the reverse-splicing fitness was determined as 0.00439.

For C82U A111C A120G A145C C150G C169U, the reverse-splicing fitness stood at 0.00662.

Regarding A111U A120C A145G C150U C169A U176C, the reverse-splicing fitness is 0.0138.

As for C82U A111U A145G C169U U176C, the reverse-splicing fitness amounted to 0.0145.

C82U A111C A145C C169G U176A: the reverse-splicing fitness was found to be 0.0274.

As to C82G A111G A120U A145C C150A C169A U176C, the reverse-splicing fitness came out at 0.00213.

Take A111G C150G C169U U176C: the reverse-splicing fitness turned out to be 0.0163.

On to A111G C169G U176G, for which the reverse-splicing fitness is 0.00607.

As for C82A A111C A120C A145G C150A U176G, the reverse-splicing fitness worked out at 0.00865.

Consider C82A A111G A120C A145G C150A C169A, for which the reverse-splicing fitness came to 0.0119.

Consider C82G A111U A120C C150A C169A U176C, for which the reverse-splicing fitness came out at 0.0217.

C82A A111U A145G C150U C169G U176A: the reverse-splicing fitness stood at 0.0134.

Consider C82A A120C A145G C150G C169G, for which the reverse-splicing fitness is 0.00868.

Turning to C82U A111G A120C C150U U176G, the reverse-splicing fitness worked out at 0.00651.

Regarding A111U A120U A145C C150A C169U U176C, the reverse-splicing fitness is 0.00285.

Regarding A111G A120U C150U C169U U176C, the reverse-splicing fitness was 0.02.

Turning to C82A A111U A120U C150G C169U U176G, the reverse-splicing fitness amounted to 0.00327.

Turning to C82U A111C A120G A145U C150U C169A, the reverse-splicing fitness was 0.00896.

For the variant C82U A111G A145U C150U U176G, the reverse-splicing fitness was 0.0347.

Turning to C82U A111U A120U A145C C150A U176G, the reverse-splicing fitness turned out to be 0.00245.

As for C82A A111U A120G A145G C150U C169U U176C, the reverse-splicing fitness turned out to be 0.0156.

As for A111C A120U A145C C150U C169U, the reverse-splicing fitness was found to be 0.0171.

As for C82G A111C A120G A145C C150A C169U U176G, the reverse-splicing fitness was found to be 0.0047.

Consider C82U A111U A120C C150A C169A U176G, for which the reverse-splicing fitness worked out at 0.00592.

For the variant A145C C169A U176G, the reverse-splicing fitness came to 0.00461.

Regarding C82G A111G A120G A145U C150U C169G U176C, the reverse-splicing fitness was determined as 0.0179.

For the variant C82G A111U A120C A145G, the reverse-splicing fitness was 0.0543.

On to A120C A145G C169A U176G, for which the reverse-splicing fitness was determined as 0.00471.

For C82U A111U A145G C150A U176G, the reverse-splicing fitness turned out to be 0.00953.

With A111G A120C A145U C169G U176G, the reverse-splicing fitness came to 0.0045.

On to C82A A120U C150G C169A U176A, for which the reverse-splicing fitness amounted to 0.00498.

Consider C82G A120U A145C C150G C169U U176G, for which the reverse-splicing fitness worked out at 0.00182.

C82A A145G C150G: the reverse-splicing fitness came to 0.0693.

On to C82U A111U C150U C169A U176A, for which the reverse-splicing fitness was found to be 0.0138.

Take A111C A120C A145U C150G C169U U176A: the reverse-splicing fitness was 0.00997.

Take A111U A120U C150U C169G: the reverse-splicing fitness amounted to 0.0274.

For C82U A111G A120C A145C C169A, the reverse-splicing fitness came to 0.00548.

On to C82U A111C A120U A145C C169G U176G, for which the reverse-splicing fitness turned out to be 0.00186.

With C82U A111C C169A U176C, the reverse-splicing fitness is 0.0243.

Consider A111C A120U A145G C150A U176A, for which the reverse-splicing fitness came to 0.046.

Regarding C82U A111C A120C A145C C169G, the reverse-splicing fitness is 0.00865.

Turning to C82A A111G A145C C150G C169U, the reverse-splicing fitness is 0.00926.

Consider C82G A111G U176A, for which the reverse-splicing fitness was 0.277.

Consider C82U A111U A120C A145G C150U U176A, for which the reverse-splicing fitness was 0.0116.

Turning to C82G A111G C150U C169A, the reverse-splicing fitness came to 0.0104.

For the variant A111U A120C A145G C150G U176G, the reverse-splicing fitness was determined as 0.00627.

Consider C82G A111U A120G A145C C150G C169U U176A, for which the reverse-splicing fitness stood at 0.0121.

For the variant C82G A111U A145C C150U C169G U176G, the reverse-splicing fitness is 0.00635.

For the variant C82G A111U A120U A145U C169U U176G, the reverse-splicing fitness stood at 0.00177.

Consider C82U A120G A145G C150G U176A, for which the reverse-splicing fitness was determined as 0.00607.

C82U A111C A120U A145U C150U C169U U176G: the reverse-splicing fitness is 0.00223.

On to C82U A145G C150G U176C, for which the reverse-splicing fitness amounted to 0.0584.

Turning to A111U A120U A145G C150G C169U U176A, the reverse-splicing fitness stood at 0.00644.

Regarding C82U A111G A120U A145U C150A C169A, the reverse-splicing fitness stood at 0.00228.

C82U A111C A120C A145G C150G U176C: the reverse-splicing fitness was 0.00988.

Take C82G A111G C150U C169U U176G: the reverse-splicing fitness came to 0.00785.

On to C82U A120U A145C U176C, for which the reverse-splicing fitness is 0.0503.

Turning to C82G A120G A145U C169G U176C, the reverse-splicing fitness was determined as 0.0227.

As for C82U A111U A120C A145C C150G U176A, the reverse-splicing fitness is 0.00494.

Values taken from the RNAGym collection of RNA variant scans (doi:10.1093/molbev/msab373).
